Results from the Human Domainome abundance scans (Beltran et al. 2025).
± gives the uncertainty stated by the source.

B1: Calcium-binding protein 2, residues 155 to 219; numbered along this chain, Q9NPB3 (parent)
chain: RELRDAFREFDTNGDGRISVGELRAALKALLGERLSQREVDEILQDVDLNGDGLVDFEEFVRMMS
B2: Chromodomain-helicase-DNA-binding protein 4, residues 365 to 417; numbered along this chain, Q14839 (parent)
chain: YETDHQDYCEVCQQGGEIILCDTCPRAYHMVCLDPDMEKAPEGKWSCPHCEKE

Variants of: B1
Experiment: abundance fitness (aPCA) (normalised: wild type 0, dead -1); higher = more abundant; growth selection in yeast, the domain comes from the species named
Details: Homo sapiens

Abundance fitness, by site and new letter:
L3: S -0.473 ± 0.13; P -0.441 ± 0.11; M 0.012 ± 0.068; C -1 ± 0.25; W -0.187 ± 0.1; I -0.095 ± 0.2; T -0.281 ± 0.081; A -0.302 ± 0.064; N -0.345 ± 0.16; Q 0.018 ± 0.095; R -0.729 ± 0.073; V -0.15 ± 0.058; E -0.274 ± 0.12; Y -0.139 ± 0.17; F -0.113 ± 0.2; D -0.497 ± 0.17
E2: S -0.355 ± 0.13; K -0.158 ± 0.1; D -0.677 ± 0.37; W -0.344 ± 0.075; V -0.357 ± 0.091; Y -0.306 ± 0.15; G -0.15 ± 0.096; L -0.612 ± 0.058; Q -0.114 ± 0.064; T -0.093 ± 0.067; A -0.509 ± 0.084; H -0.086 ± 0.13; C -0.472 ± 0.19; P -0.21 ± 0.076; R -0.128 ± 0.058
D5: H -0.159 ± 0.062; E -0.054 ± 0.056; A -0.226 ± 0.049; F -0.066 ± 0.078; C -0.178 ± 0.069; G -0.318 ± 0.05
R4: Q -0.21 ± 0.11; L -0.526 ± 0.069; V -0.107 ± 0.049; S -0.276 ± 0.083; T -0.138 ± 0.097; F -0.321 ± 0.16; K 0.064 ± 0.077; H -0.074 ± 0.1; D -0.052 ± 0.15; Y -0.544 ± 0.36; N -0.027 ± 0.12; A -0.28 ± 0.099; M -0.144 ± 0.095; G -0.255 ± 0.086; E 0.217 ± 0.27
R1: A -0.114 ± 0.33; T -0.007 ± 0.19; K 0.12 ± 0.37; S -0.113 ± 0.1; N 0.078 ± 0.084; G -0.204 ± 0.11; E 0.423 ± 0.36; M 0.206 ± 0.21; C -0.26 ± 0.16

Variants of: B2
Experiment: as above
Details: Homo sapiens

Abundance fitness of substitutions, site by site:
C50: E -0.366 ± 0.15; S -0.222 ± 0.11; M -0.819 ± 0.22; T -0.624 ± 0.2; R -0.555 ± 0.098; Y -0.679 ± 0.15; K -0.344 ± 0.17; I -0.526 ± 0.28; N -0.313 ± 0.29; D -0.17 ± 0.16; L -0.517 ± 0.14; Q -0.767 ± 0.24; A -0.271 ± 0.13; F -0.567 ± 0.19; W -0.619 ± 0.12
C47: Y -0.811 ± 0.22; S -0.99 ± 0.14; V -1.11 ± 0.16; P -0.657 ± 0.17; T -0.43 ± 0.15; W -1.09 ± 0.16; R -0.848 ± 0.11; Q -0.833 ± 0.21
E51: F -0.392 ± 0.2; S -0.127 ± 0.11; I -0.331 ± 0.22; W -0.338 ± 0.11; Y -0.221 ± 0.23; D -0.111 ± 0.28; P -0.007 ± 0.12; M -0.03 ± 0.15; L -0.275 ± 0.11; T -0.174 ± 0.15; G 0.132 ± 0.091; C -0.227 ± 0.13; N -0.357 ± 0.48; Q -0.371 ± 0.2
P48: L -0.126 ± 0.1; G -0.068 ± 0.098; T -0.132 ± 0.12; S 0.058 ± 0.1; Q -0.133 ± 0.15; A -0.002 ± 0.11; F -0.165 ± 0.22; C -0.001 ± 0.19; M 0.07 ± 0.12; N -0.678 ± 0.3; D -0.16 ± 0.19; E -0.151 ± 0.12; W -0.622 ± 0.14; Y -0.101 ± 0.16; K -0.29 ± 0.18; H -0.057 ± 0.19; I -0.308 ± 0.27; R 0.063 ± 0.1; V -0.04 ± 0.11
E53: Y -0.323 ± 0.39; S -0.023 ± 0.16; L -0.133 ± 0.32; D -0.551 ± 0.45; R -0.04 ± 0.15; V -0.356 ± 0.19; I -0.335 ± 0.39; W 0.113 ± 0.22; H -0.378 ± 0.33; A -0.207 ± 0.16; G -0.252 ± 0.13; N -0.57 ± 0.38; T -0.717 ± 0.41; C -0.263 ± 0.25
H49: I -0.109 ± 0.17; W -0.175 ± 0.15; C 0.348 ± 0.19; R -0.044 ± 0.12; F -0.068 ± 0.19; P -0.041 ± 0.12; G -0.086 ± 0.1; K -0.2 ± 0.18; M -0.354 ± 0.16; T -0.16 ± 0.14; S -0.202 ± 0.11; E -0.247 ± 0.12; L -0.213 ± 0.13; N -0.381 ± 0.23; D -0.241 ± 0.15; Y -0.169 ± 0.18; A -0.281 ± 0.11; Q -0.141 ± 0.2; V -0.185 ± 0.099
K52: A -0.233 ± 0.12; I -0.586 ± 0.21; C -0.105 ± 0.16; Q -0.134 ± 0.18; H 0.286 ± 0.23; M -0.376 ± 0.23; S 0.161 ± 0.14; N -0.007 ± 0.21; D -0.39 ± 0.23; E 0.136 ± 0.16; W -0.346 ± 0.14; V -0.176 ± 0.099; L -0.088 ± 0.11; P -0.072 ± 0.16; G -0.204 ± 0.12; T 0.06 ± 0.16; R -0.106 ± 0.11
